Data published in patent publication US20150056199A1.
Like-named read-outs stand apart in the source and are kept apart here.

Assays:
Test in all cases: cell-based or functional assay
[1] = molecular target: human GDF15 (hGDF15), mature, generated in-house in CHO cells (human) (UniProt Q99988)
[2] = molecular target: human TGFβ3 (PeproTech) (human) (UniProt P10600)
[3] = molecular target: human TGFβ1 (PeproTech) (human) (UniProt P01137)
[4] = molecular target: murine GDF15 (mGDF15), mature, generated in-house in CHO cells (mouse) (UniProt Q9Z0J7)
[5] = molecular target: human TGFβ3 (PeproTech) (human) (UniProt P10600); remark: listed apart in the source
[6] = molecular target: human TGFβ1 (PeproTech) (human) (UniProt P01137); remark: listed apart in the source

Sequence of hTβRIIshort(29-159)-hG2Fc (Fc fusion) (chain): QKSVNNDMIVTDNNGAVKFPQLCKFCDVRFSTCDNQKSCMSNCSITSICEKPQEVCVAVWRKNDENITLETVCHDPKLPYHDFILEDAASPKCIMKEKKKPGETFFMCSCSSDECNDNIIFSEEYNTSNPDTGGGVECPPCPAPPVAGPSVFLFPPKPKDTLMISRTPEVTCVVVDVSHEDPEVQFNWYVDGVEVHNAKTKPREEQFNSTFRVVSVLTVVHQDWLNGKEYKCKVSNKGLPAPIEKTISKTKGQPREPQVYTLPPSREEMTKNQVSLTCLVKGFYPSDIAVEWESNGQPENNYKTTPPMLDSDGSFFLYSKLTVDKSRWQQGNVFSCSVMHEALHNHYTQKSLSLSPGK
Sequence of human TGFβ3 (PeproTech) (human) (P10600 301-412 limits assumed): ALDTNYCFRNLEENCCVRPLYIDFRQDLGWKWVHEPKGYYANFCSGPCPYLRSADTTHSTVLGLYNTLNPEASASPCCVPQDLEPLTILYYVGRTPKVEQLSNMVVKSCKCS
Sequence of human TGFβ1 (PeproTech) (human) (P01137 279-390 limits assumed): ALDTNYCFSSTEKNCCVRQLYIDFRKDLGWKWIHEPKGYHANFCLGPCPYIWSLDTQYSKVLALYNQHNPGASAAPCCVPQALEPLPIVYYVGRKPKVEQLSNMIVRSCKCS
Sequence of hTβRIIshort(23-153)-hG2Fc (Fc fusion) (chain): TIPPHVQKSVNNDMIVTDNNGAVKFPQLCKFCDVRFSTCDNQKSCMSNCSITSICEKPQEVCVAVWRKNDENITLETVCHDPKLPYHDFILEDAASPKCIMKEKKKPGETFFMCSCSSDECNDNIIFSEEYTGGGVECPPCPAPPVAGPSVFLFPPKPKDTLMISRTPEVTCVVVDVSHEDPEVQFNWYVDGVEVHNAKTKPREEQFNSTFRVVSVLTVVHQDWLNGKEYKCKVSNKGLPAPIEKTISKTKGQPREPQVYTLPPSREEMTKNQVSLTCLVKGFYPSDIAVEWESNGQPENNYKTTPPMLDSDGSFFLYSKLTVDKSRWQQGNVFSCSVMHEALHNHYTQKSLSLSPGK
Sequence of human GDF15 (hGDF15), mature, generated in-house in CHO cells (human) (Q99988 197-308): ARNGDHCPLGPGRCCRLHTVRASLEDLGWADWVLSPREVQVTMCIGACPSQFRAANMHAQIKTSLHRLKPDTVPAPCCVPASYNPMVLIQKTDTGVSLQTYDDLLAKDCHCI
Sequence of hTβRIIshort(23-159)-hG2Fc (Fc fusion) (chain): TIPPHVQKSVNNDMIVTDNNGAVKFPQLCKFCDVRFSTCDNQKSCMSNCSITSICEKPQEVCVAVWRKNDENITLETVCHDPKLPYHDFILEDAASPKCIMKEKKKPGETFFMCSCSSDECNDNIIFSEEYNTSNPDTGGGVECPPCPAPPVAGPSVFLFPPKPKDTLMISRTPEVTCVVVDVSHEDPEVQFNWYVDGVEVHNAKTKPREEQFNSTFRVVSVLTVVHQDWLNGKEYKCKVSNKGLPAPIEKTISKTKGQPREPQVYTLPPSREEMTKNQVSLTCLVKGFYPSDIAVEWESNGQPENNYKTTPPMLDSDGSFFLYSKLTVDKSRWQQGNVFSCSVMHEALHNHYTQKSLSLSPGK
Sequence of hTβRIIshort(35-159)-hG2Fc (Fc fusion) (chain): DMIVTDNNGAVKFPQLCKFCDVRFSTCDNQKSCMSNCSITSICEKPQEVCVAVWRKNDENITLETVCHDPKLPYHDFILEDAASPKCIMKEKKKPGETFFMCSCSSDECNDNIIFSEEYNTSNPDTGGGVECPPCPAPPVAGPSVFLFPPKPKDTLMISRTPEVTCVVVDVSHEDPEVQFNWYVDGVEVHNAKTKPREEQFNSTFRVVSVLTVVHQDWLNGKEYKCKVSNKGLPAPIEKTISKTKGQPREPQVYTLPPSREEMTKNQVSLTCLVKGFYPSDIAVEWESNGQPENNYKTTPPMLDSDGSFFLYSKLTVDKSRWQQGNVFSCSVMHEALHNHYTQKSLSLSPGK
Sequence of murine GDF15 (mGDF15), mature, generated in-house in CHO cells (mouse) (Q9Z0J7 192-303): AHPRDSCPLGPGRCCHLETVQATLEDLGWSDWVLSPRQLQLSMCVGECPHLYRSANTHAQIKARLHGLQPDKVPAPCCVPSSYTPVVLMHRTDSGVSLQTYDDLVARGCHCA

Row | Substance | IC50 (nM), A549 CAGA-12 reporter gene assay, hGDF15 (70 ng/ml) [1] | IC50 (nM), A549 CAGA-12 reporter gene assay, hTGFβ3 (270 pg/ml) [2] | IC50 (nM), A549 CAGA-12 reporter gene assay, hTGFβ1 (640 pg/ml) [3] | IC50 (nM), A549 CAGA-12 reporter gene assay, mGDF15 (35 ng/ml) [4] | IC50 (nM), A549 CAGA-12 reporter gene assay, hTGFβ3 (270 pg/ml) [5] | IC50 (nM), A549 CAGA-12 reporter gene assay, hTGFβ1 (640 pg/ml) [6] | IC50 (nM), A549 CAGA-12 reporter gene assay, hGDF15 (70 or 112 ng/ml) [1]
1 | hTβRIIshort(23-153)-hG2Fc (Fc fusion) | 0.18 nM | 0.14 nM | 2.62 nM | – | – | – | –
2 | hTβRIIshort(23-153/N70D)-hG2Fc (Fc fusion) | 2.42 nM | – | 17.7 nM | – | – | – | –
3 | hTβRIIshort(23-159)-hG2Fc (Fc fusion) | 0.14 nM | 0.37 nM | 0.52 nM | 0.12 nM | 0.14 nM | 1.73 nM | –
4 | hTβRIIshort(23-159/D110K)-hG2Fc (Fc fusion) | – | – | – | 0.7 nM | – | > 73.6 nM | –
5 | hTβRIIshort(29-159)-hG2Fc (Fc fusion) | – | > 7.5 nM | 2.05 nM | – | – | – | 0.4 nM
6 | hTβRIIshort(35-159)-hG2Fc (Fc fusion) | – | > 7.5 nM | 2.51 nM | – | – | – | 0.92 nM
